Target: actin filaments (Alexa488 label on 3-20% of the actin in the microscopy assays)
Assay: co-sedimentation

B1: unlabeled Tm1A (recombinant AS-Tm1A, non-muscle Drosophila tropomyosin isoform Tm1A) (natural protein)
chain: MASMTTSIPQGTLLDVLKKKMRQTKEEMEKYKDECEEFHKRLQLEVVRREEAESEVAALNRRIQLLEEDLERSEERLGSATAKLSEASQAADESERIRKALENRTNMEDDKVALLENQLAQAKLIAEEADKKYEEVARKLVLMEQDLERSEEKVELSESKIVELEEELRVVGNNLKSLEVSEEKATQKEETFETQIKVLDHSLKEAEARAEFAERSVQKLQKEVDRLEDDLLNVRGKNKLLQEEMEATLHDIQNM
With B1 the Kd was 46 nM.
